Reference: article PMC5155031

What was measured:
Test in all cases: dose-dependent binding with Scatchard plot analysis
[1] = target: mIgCLL6-1, CLL-derived monoclonal Igγ1 antibody of clonotype CLL6-1
[2] = target: mIgCLL6-2, CLL-derived monoclonal Igγ1 antibody of clonotype CLL6-2
[3] = target: mIgCLL2-1, CLL-derived monoclonal Igγ1 antibody of clonotype CLL2
[4] = target: mIgCLL2-2, CLL-derived monoclonal Igγ1 antibody of clonotype CLL2
[5] = target: mIgCLL3-1, CLL-derived monoclonal Igγ1 antibody of clonotype CLL3
[6] = target: mIgCLL3-2, CLL-derived monoclonal Igγ1 antibody of clonotype CLL3
[7] = target: mIgCLL5-1, CLL-derived monoclonal Igγ1 antibody of clonotype CLL5-1
[8] = target: mIgCLL5-2, CLL-derived monoclonal Igγ1 antibody of clonotype CLL5-2

B1: pCLL6-1 mimotope (peptide)
peptide: CNQDWHKKC
A Kd [1] of 57.5 nM was found for B1 in this work.

B2: pCLL6-2 mimotope (peptide)
peptide: CTTVIPERC
A Kd [2] of 22.7 nM was found for B2 in this work.

B3: pCLL2-1 mimotope (peptide)
peptide: CNTYSVSLC
A Kd [3] of 10.8 nM was found for B3 in this work.

B4: pCLL2-2 mimotope (peptide)
peptide: CKSYSVSLC
A Kd [4] of 7.57 nM was found for B4 in this work.

B5: pCLL3-1 mimotope (peptide)
peptide: CPPQSVTEC
A Kd [5] of 22.1 nM was found for B5 in this work.

B6: pCLL3-2 mimotope (peptide)
peptide: CDVWHSAYC
A Kd [6] of 5.64 nM was found for B6 in this work.

B7: pCLL5-1 mimotope (peptide)
peptide: CFSDDEWWC
A Kd [7] of 7.08 nM was found for B7 in this work.

B8: pCLL5-2 mimotope (peptide)
peptide: CPPFTNYEC
A Kd [8] of 7.32 nM was found for B8 in this work.
